Data on 2 substances can be found in patent publication US7534862.

Assay [1] deals with IL-6/sIL-6R complex (100 ng/ml IL-6 + 50 ng/ml sIL-6R) (UniProt P05231). The experiment in a line: cell-based or functional assay.
Assay [2] concerns the target hyper-IL-6 (H-IL-6), a fusion protein comprising IL-6+sIL-6R (UniProt P08887). The experiment in a line: cell-based or functional assay.

Sequence of hyper-IL-6 (H-IL-6), a fusion protein comprising IL-6+sIL-6R (P08887 20-323 limits assumed, chain 1 of 2): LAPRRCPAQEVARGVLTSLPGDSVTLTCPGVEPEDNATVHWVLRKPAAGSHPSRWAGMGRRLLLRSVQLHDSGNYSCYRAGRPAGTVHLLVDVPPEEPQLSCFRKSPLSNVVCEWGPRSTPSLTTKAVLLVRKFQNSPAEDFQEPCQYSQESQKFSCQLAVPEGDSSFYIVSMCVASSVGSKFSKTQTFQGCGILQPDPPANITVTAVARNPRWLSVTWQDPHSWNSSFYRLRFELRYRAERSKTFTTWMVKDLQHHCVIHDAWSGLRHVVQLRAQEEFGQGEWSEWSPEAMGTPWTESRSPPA
Sequence of hyper-IL-6 (H-IL-6), a fusion protein comprising IL-6+sIL-6R (P05231 30-212 limits assumed, chain 2 of 2, further chain): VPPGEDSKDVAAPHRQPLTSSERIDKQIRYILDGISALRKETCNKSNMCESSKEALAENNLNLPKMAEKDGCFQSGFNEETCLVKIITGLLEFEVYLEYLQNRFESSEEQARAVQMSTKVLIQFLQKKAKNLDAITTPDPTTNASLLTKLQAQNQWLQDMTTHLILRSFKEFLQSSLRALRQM
Sequence of sgp130TagPEG (PEGylated sgp130Tag / sgp130(D1-D3)-His, forked PEG) (P40189 other isoform, or with tags, fused parts or gaps): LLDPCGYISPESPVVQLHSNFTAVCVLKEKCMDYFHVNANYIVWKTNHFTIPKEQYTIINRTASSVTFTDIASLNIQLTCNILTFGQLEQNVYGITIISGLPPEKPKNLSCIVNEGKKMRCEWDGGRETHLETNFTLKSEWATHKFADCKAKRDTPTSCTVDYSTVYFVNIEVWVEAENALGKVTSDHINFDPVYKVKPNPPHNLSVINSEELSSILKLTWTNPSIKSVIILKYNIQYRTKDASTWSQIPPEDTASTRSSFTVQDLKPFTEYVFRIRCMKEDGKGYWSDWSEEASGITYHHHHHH
Sequence of IL-6/sIL-6R complex (100 ng/ml IL-6 + 50 ng/ml sIL-6R) (P05231 30-212 limits assumed, chain 1 of 2): as the sequence (P05231 30-212 limits assumed, chain 2 of 2, further chain) above
Sequence of IL-6/sIL-6R complex (100 ng/ml IL-6 + 50 ng/ml sIL-6R) (P08887 20-358 limits assumed, chain 2 of 2, further chain): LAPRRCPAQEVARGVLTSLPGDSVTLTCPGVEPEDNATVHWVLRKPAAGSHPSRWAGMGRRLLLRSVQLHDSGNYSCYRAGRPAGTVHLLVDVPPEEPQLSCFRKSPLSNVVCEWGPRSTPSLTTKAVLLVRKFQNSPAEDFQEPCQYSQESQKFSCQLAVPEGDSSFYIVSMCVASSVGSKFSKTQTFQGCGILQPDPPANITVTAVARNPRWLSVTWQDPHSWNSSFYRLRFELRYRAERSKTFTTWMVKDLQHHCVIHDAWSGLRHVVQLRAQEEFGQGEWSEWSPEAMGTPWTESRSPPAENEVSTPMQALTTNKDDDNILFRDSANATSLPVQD
Sequence of Human sgp130Fc (P40189 23-619 limits assumed): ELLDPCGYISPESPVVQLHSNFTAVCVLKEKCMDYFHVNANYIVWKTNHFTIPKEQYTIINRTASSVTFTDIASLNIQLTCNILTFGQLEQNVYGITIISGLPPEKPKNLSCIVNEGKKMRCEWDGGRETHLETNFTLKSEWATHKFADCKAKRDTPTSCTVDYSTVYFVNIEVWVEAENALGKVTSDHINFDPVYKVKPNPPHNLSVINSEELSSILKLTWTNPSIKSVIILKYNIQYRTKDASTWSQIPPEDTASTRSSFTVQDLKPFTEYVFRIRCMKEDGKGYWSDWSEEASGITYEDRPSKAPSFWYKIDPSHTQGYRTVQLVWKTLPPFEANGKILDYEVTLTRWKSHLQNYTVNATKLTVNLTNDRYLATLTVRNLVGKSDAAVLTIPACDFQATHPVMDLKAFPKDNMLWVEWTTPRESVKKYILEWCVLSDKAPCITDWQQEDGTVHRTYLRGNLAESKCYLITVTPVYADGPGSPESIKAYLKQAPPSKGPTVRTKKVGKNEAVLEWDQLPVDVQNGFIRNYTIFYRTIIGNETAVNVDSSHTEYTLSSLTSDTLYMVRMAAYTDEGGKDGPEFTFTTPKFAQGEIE

Consider “sgp130TagPEG (PEGylated sgp130Tag / sgp130(D1-D3)-His, forked PEG) (from UniProt P40189 24-322) (receptor)”, for which, in assay [1], the factor of improvement over sgp130Fc in inhibition of BAF/gp130 proliferation (fold vs sgp130Fc) is 1.5 to 3 and the half-maximal [3H]-thymidine incorporation of BAF/gp130 cells (proliferation) is 1 to 5 ng/mL. In assay [2], this substance registered an STAT3 activity (relative luciferase activity, pSTAT3-TA-Luc reporter in BAF/gp130 cells) at 10 ug/ml inhibitor, 5 ng/ml H-IL-6 (% of activity with H-IL-6 alone) of 19; a concentration giving half-maximal activation of STAT3 (H-IL-6-induced, luciferase reporter in BAF/gp130 cells) of 2.5 µg/mL; an efficiency relative to sgp130Fc in inhibition of H-IL-6-induced STAT3 activation (fold vs sgp130Fc) of 2 to 3; a factor of improvement over sgp130Fc in inhibition of BAF/gp130 proliferation (fold vs sgp130Fc) of 1.5 to 3. This substance yielded a half-maximal [3H]-thymidine incorporation of BAF/gp130 cells (proliferation) in assay [2] of 1 to 5 ng/mL.

Take “Human sgp130Fc (from UniProt P40189 23-619) (Fc fusion)”: the STAT3 activity (relative luciferase activity, pSTAT3-TA-Luc reporter in BAF/gp130 cells) at 10 ug/ml inhibitor, 5 ng/ml H-IL-6 (% of activity with H-IL-6 alone) in assay [2] worked out at 26.
